Reference: patent publication US6881404

Molecular target: T1, P-selectin glycoprotein ligand-1 (UniProt Q14242)
T1 sequence: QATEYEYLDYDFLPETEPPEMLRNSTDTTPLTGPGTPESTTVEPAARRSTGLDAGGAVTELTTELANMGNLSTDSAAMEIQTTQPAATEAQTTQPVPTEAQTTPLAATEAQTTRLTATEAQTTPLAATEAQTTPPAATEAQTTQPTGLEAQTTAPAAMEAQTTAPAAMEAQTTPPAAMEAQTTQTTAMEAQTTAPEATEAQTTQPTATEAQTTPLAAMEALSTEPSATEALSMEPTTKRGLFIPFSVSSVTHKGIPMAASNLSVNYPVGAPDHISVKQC

Substance: mocarhagin purified from the venom of the Mozambiquan spitting cobra, Naja mossambica mossambica
- proteolytic cleavage of PSGL-1: Mocarhagin cleaves a ten amino acid peptide from the mature N-terminus of PSGL-1 and abolishes the ability of PSGL-1 to bind P-selectin
